Laboratory results published in patent publication US20220363762A1, “METHODS AND COMBINATIONS FOR THE TREATMENT OF CANCER USING IMMUNE CHECKPOINT INHIBITOR ANTIBODIES” (ASTRAZENECA AB, priority 2020, published 2022).

B1: Tremelimumab (antibody)
VL: PSSLSASVGDRVTITCRASQSINSYLDWYQQKPGKAPKLLIYAASSLQSGVPSRFSGSGSGTDFTLTISSLQPEDFATYYCQQYYSTPFTFGPGTKVEIKRTVAAPSVFIFPPSDEQLKSGTASVVCLLNNFYPREAKV
VH: GVVQPGRSLRLSCAASGFTFSSYGMHWVRQAPGKGLEWVAVIWYDGSNKYYADSVKGRFTISRDNSKNTLYLQMNSLRAEDTAVYYCARDPRGATLYYYYYGMDVWGQGTTVTVSSASTKGPSVFPLAPCSRSTSESTAALGCLVKDYFPEPVTVSWNSGALTSGVH
modifications: light chain variable region; heavy chain variable region
notes: anti-CTLA-4 antibody; arm T = tremelimumab 750 mg monotherapy

How the values were obtained:
Format in all cases: in vivo, human
[1] = tested on: advanced HCC; assay: Randomized, open-label, multi-center clinical study of durvalumab and tremelimumab (Example 2): efficacy; details: for ORR, % / Median (95% CI) OS, mo: Table 1, per study arm; for Median (95% CI) OS, mo: 95% CI in cell beside; for Median PFS (95% CI): patients with advanced HCC
Method: The study disclosed below is a randomized, open-label, multi-center, global, clinical study to assess the efficacy and safety of durvalumab monotherapy and durvalumab plus tremelimumab combination therapy versus sorafenib in the treatment of immune checkpoint inhibitor-naïve patients with HCC who progressed on, were intolerant to, or refused sorafenib. In the foregoing disclosure, a flat-dose regimen of 1500 mg (approximately equivalent to 20 mg/kg) of durvalumab plus 300 mg (equivalent to 4 mg/kg) of tremelimumab was used in this study.
The study population included patients 18 years of age or older with advanced HCC, Barcelona Clinic Liver Cancer Stage B (not eligible for locoregional therapy) or stage C, and Child-Pugh A classification liver disease. Patients must not have received any prior systemic therapy for HCC. Patients were stratified according to macrovascular invasion (yes versus no), etiology of liver disease (hepatitis B virus [confirmed HBV] versus hepatitis C virus [confirmed HCV] versus others), and performance status (Eastern Cooperative Oncology Group [ECOG] 0 versus 1).
A total of 332 patients were enrolled (T300+D, n=75; durvalumab, n=104; tremelimumab, n=69; T75+D, n=84). Patients were randomized in an equal ratio to groups treated with durvalumab 1500 mg monotherapy (D), tremelimumab 750 mg monotherapy (T), combination therapy with durvalumab 1500 mg plus tremelimumab 75 mg×4 doses (T75+D) followed by durvalumab Q4W, combination therapy with durvalumab 1500 mg plus tremelimumab 300 mg xl dose (T 300+D) followed by durvalumab Q4W. Upon closure to further enrollment into the T75+D arm, patients were randomized in an equal ratio to groups treated with D, T300+D, and Sorafenib. Durvalumab and tremelimumab were administered via intravenous (IV) infusion every 4 weeks (Q4W). Sorafenib was administered orally BID (see FIGS. 3 and 4).
(§1) Tremelimumab 750 mg via IV infusion Q4W starting at Week 0 for seven doses and then Q12W until confirmed PD, unacceptable toxicity, or any discontinuation criterion was met. (Note: If a patient's weight decreased to ≤30 kg, the patient received weight-based dosing of tremelimumab 10 mg/kg Q4W, until the weight increased to >30 kg, at which point the patient received the flat dose of tremelimumab 750 mg Q4W).
as §1, with “Durvalumab 1500 mg monotherapy • Durvalumab 1500” for “Tremelimumab 750”, “0” for “0 for seven doses and then Q12W”, “durvalumab 20” for “tremelimumab 10”, “durvalumab 1500” for “tremelimumab 750”, “Q4W.)” for “Q4W).”
Durvalumab 1500 mg plus tremelimumab 75 mg×4 doses combination therapy (Arm B) • Durvalumab 1500 mg plus tremelimumab 75 mg×4 doses starting at Week 0, followed by durvalumab 1500 mg monotherapy Q4W starting 4 weeks after the final infusion of the combination therapy until confirmed PD, unacceptable toxicity, or any discontinuation criteria was met. (Note: If a patient's weight decreased to 30 kg or below (≤30 kg), the patient received weight-based dosing of durvalumab 20 mg/kg Q4W and tremelimumab 1 mg/kg Q4W, until the weight increased to >30 kg, at which point the patient received the original assigned flat dose of durvalumab 1500 mg Q4W with or without tremelimumab 75 mg Q4W.)
Durvalumab 1500 mg plus tremelimumab 300 mg×1 dose combination therapy (Arm C) • Durvalumab 1500 mg plus tremelimumab 300 mg×1 dose starting at Week 0, followed by durvalumab 1500 mg monotherapy Q4W starting 4 weeks after the first and final infusion of the combination therapy until confirmed PD, unacceptable toxicity, or any discontinuation criteria was met. […]

[2] = tested on: peripheral blood T cell receptors (TCRs); assay: Molecular analysis of peripheral blood T cell receptors (TCR clonal expansion); details: for Median expanded T cell clones at Day 29, n: Day 29, first cycle of Q4W dosing, spread in cell beside
From the text: This trend was not seen with monotherapy D or the lower dose T combination (T75+D) (FIG. 15). Additionally, greater clonal expansion of T-cells was associated with better OS and seen in D+T combination arms (FIG. 16).

[3] = tested on: proliferating CD8+Ki67+ T cells; assay: Exposure-response model: tremelimumab exposure versus proliferating CD8+Ki67+ T cells
Method: (§2) Finally, an exposure-response model was developed to describe the relationship between tremelimumab exposure and proliferating CD8+Ki67+ T cells in patients with uHCC. Relationships between tremelimumab trough concentration after the first dose (Cmin) and the maximum change from baseline (CFB) for CD8+ Ki67+ T cell counts were evaluated using linear and non-linear regression models. Covariate effects were evaluated on the model intercept and the drug effect (Emax) using a stepwise search approach. The relationship between CD8+ Ki67+ T cell count CFB and tremelimumab trough concentration was best described by an Emax model. The only statistically significant and well estimated covariate effect was the baseline CD8+ Ki67+ T cell count on Emax. The maximum effect was higher in patients with lower baseline CD8+ Ki67+ T cell counts and lower in patients with higher baseline CD8+ Ki67+ T cell counts. At the 10th, median, and 90th percentiles of baseline CD8+ (3, 9, and 25 cells/uL), the maximum effect is 593%, 341%, and 77.9% change from baseline, respectively.

[4] = Tremelimumab trough concentration after the first dose (Cmin); details: 300 mg tremelimumab
Method: as §2

Molecule	ORR, % [1] [%]	Median (95% CI) OS, mo [1] [mo]	Median PFS (95% CI) [1]	clonal expansion of T cells in responders compared to non-responders ([2]; Day 29)	Median expanded T cell clones at Day 29, n [2]	median increased T-cell clonal expansion, difference between arms ([2]; day 29, D versus T75+D arms)	maximum effect (Emax), change from baseline of CD8+ Ki67+ T cell count ([3]; 10th percentile of baseline CD8+ (3 cells/uL)) [%]	maximum effect (Emax), change from baseline of CD8+ Ki67+ T cell count ([3]; 90th percentile of baseline CD8+ (25 cells/uL)) [%]	estimated half-maximal effective concentration (EC50) ([3]; Emax model, Cmin versus maximum change from baseline of CD8+ Ki67+ T cell counts, uHCC patients) [µg/mL]	maximum effect (Emax), change from baseline of CD8+ Ki67+ T cell count ([3]; median baseline CD8+ (9 cells/uL)) [%]	median Cmin [4] [µg/mL]
Durvalumab [reference compound]	10.6	13.6	2.07 (1.84-2.83) months	not seen	32	no significant difference					
B1	7.2	15.1	2.69 (1.87-5.29) months		100		593	77.9	5.24	341	12.9
